{"source": "paper PMC12858339", "origin": "cited, not measured here", "biological_target": "Calmodulin (Homo sapiens) (UniProt P0DP23)"}
{"substance": "HIV-1 MA MA (from UniProt O93182)", "values": [{"measurement": "Kd", "result": 2, "unit": "µM"}]}
